In the nanobody polyreactivity screen of Harvey et al. (2022):

Test: yeast display, Sf9 membrane polyspecificity reagent, FACS + sequencing; frameworks hold sequencing errors
In short: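 Galactose-induced (36–48 hours) yeast carrying a synthetic nanobody display library were exposed to 10% biotinylated, detergent-solubilized Sf9 membrane reagent at 4 °C for 1 hour. FACS followed streptavidin microbead enrichment, using low and high (top ~1%) gates for expression (anti-HA) and reagent binding (streptavidin). Colony PCR, MiSeq 2 × 250 sequencing and CDR-length filtering followed. Labels for polyreactivity reflect the gate of origin.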

Sequence: QVQLVETGGGLVQAGGSLRLSCAASGITFKNYAMGWYRQANGKERELVATINRGSRTNYADSVKGRFTISRDNAKNTVYLQMNSLKPEDTAVYYCNVDQANYRWVPWEMDYWGQGSQVTVSS
- polyreactivity (PSR sort gate): low polyreactivity

Sequence: QVQLVETGGGLVQAGGSLRLSCAASGLIFSYKAMGWYRQAPGKERELVGAISRGGSTYYADSVKGRFTISRDNAKNTVYLQMNSLKRVDTAVYYCAADFYGWVDYWGQGTQVTVSS
- polyreactivity (PSR sort gate): high polyreactivity

Sequence: QVQLVETGGGLVQAGGSLRLSCAASGLTIHPYAKGCYRQAPGKERELVAAISSRGTSTYYADSVKGRFTISRDNAKNTVYLQMNSLKPEDTAVYYCAARHGPRAEAMYYWGQGTQVTVSS
- polyreactivity (PSR sort gate): high polyreactivity

Sequence: QVQLVETGGGLVQAGGSLRLSCAASGLTSLGNAMGGYRQAPGKERELVAAITRTVTSTYYADSVKGRFTISRDTAKNTVYLQMNSLKPEDTAVYYCAADWWYGYSNYDYWGQGTEVTVSS
- polyreactivity (PSR sort gate): low polyreactivity

Sequence: QVQLVETGGGLVQAGGSLRLSCAASGPTFSRNAKGWYRQAPGKERELVATISRGGGITFYADSVKGRFTISRDNAKNTVYLQMNSLKPEDTAVYYCNADVRYVGLRRIVDYWGQGTQVTVSS
- polyreactivity (PSR sort gate): high polyreactivity

Sequence: QVQLVETGGGLVQAGGSLRLSCAASGRIFGHYVMGWYRPAPGTERELVAAITWRGGSTYYADSVKGRFTISRDYAKNTVYLQMNSLKPEDTAVYDCNASPSEVRRRYDYWGQGTQVTVSS
- polyreactivity (PSR sort gate): high polyreactivity

Sequence: QVQLVETGGGLVQAGGSLRLSCAASGRIFLGYAMGCYRQAPGKERELVAAISGRGGRTNYADSVKGRFTISRDNAKNTVYLQMNSLKPEDTAVYYCATVPYTASRYEYWGQGTQVTVSS
- polyreactivity (PSR sort gate): high polyreactivity

Sequence: QVQLVETGGGLVQAGGSLRLSCAASGRIFVFYTKGWYRQAPGKERELVARITGGGSTSYADSVKGRFTISRDNAKNTVYLQMNSLKPEDTAVYYCAAVTRRRYYGHIYGYWGQGTQVTVSS
- polyreactivity (PSR sort gate): high polyreactivity

Sequence: QVQLVETGGGLVQAGGSLRLSCAASGRIFWWYAMGWYRQAPGKERELVAAISTGSRTYYADSVKGRFTISRDNAKNTVYLQMNSLKPEDTAVYYCVADGLYSVSRSSIFEYWGQGTQVTVSS
- polyreactivity (PSR sort gate): low polyreactivity

Sequence: QVQLVETGGGLVQAGGSLRLSCAASGRTFSRNAMGWYRQAPGKERELVAAISQRGVSTYYADSVKGRFTISRDNAKNTVYLQMNSLKPEDTAVYYCNTRGTYRYDYWGQGTQVTVSS
- polyreactivity (PSR sort gate): low polyreactivity

Sequence: QVQLVETGGGLVQAGGSLRLSCAASGSIFDWYAMGWYRQAPGKEGELVAAISSGDSTYYADSVKGRFTISRDNAKNTVYLKMNSLKPEDTAVYYCAAVTKLSGIRYNYWGQGTQVTVSS
- polyreactivity (PSR sort gate): low polyreactivity

Sequence: QVQLVETGGGLVQAGGSLRLSCAASGSIFRDNAMGWYRQAPGKESELVAAINVRDGDTFYADSVKGRFTISRDNAKNTVYLQMNSLKPEDTAVYYCAVAGATSYFAYDSWGQGTQVTVSS
- polyreactivity (PSR sort gate): low polyreactivity

Sequence: QVQLVETGGGLVQAGGSLRLSCAASGSIFSGNAMGRSRPAPGKERELVGAITGSGGSTYYADSVKGRFTITRDNAKNTVYLQMNSLKPVDTAVYYCAVLFRTFYYWGQGTQVTVSS
- polyreactivity (PSR sort gate): high polyreactivity

Sequence: QVQLVETGGGLVQAGGSLRLSCAASGSIFVLYAMVWSRQAPGKERELVAAISKRTGSSYYADSVKGRFTISRDHAKHTVYLQTNSLKPEDTAVYYCAARGRQYRYYDLDYWGQGTQVTLSS
- polyreactivity (PSR sort gate): low polyreactivity

Sequence: QVQLVETGGGLVQAGGSLRLSCAASGSIFWSNAMGWYRQAPGKERELVAAITSGGRTYYADSVKGRFTISRDNAKNTVYLQMNSLKPEDTAVYYCAAYWNSATGFDYWGQVTQVTVSS
- polyreactivity (PSR sort gate): high polyreactivity

Sequence: QVQLVETGGGLVQAGGSLRLSCAASGSSFGSYAMGWYREAPGKERELVAAISSSGASTYYADSVKGRFTISRDNAKITVYLQMNSLKPEDTAVYYCNAARRYPTRGGYWGQGTQVTVSS
- polyreactivity (PSR sort gate): high polyreactivity

Sequence: QVQLVETGGGLVQAGGSLRLSCAASGSTFFINAMGWYRQAPGKERELVAAITSTDSTTYADSVKGRFTISRDNAKNTVYLQMNSLKPEDTAVYYCAKESIGQDPVSGAWARHEYDYWGQGTQVTVSS
- polyreactivity (PSR sort gate): low polyreactivity

Sequence: QVQLVETGGGLVQAGGSLRLSCAASGSTFGWNAMGWYRQAPGKERELVAAITGGGSTYYADSVKGRFTISRDNAKNTVYLQMNSLKPEDTAVYYCEGDYWGQGTQVTVSS
- polyreactivity (PSR sort gate): low polyreactivity

Sequence: QVQLVETGGGLVQAGGSLRLSCAASGSTLAPYVMGWYRQAPGKERELVAVISTRTGRTYYADSVKGRFTISRDNAKNTVYLQMNSLKPEDTAVYYCAAPVYPYQVQTYDYWGQGTQVTVSS
- polyreactivity (PSR sort gate): high polyreactivity

Sequence: QVQLVETGGGLVQAGGSLRLSCAASGTLSSYAMGWYRPAPGTERELVAAISLSGGSTYADSVKGRFTISRDNAKNTVYLQMNSLKPEDTAVYYCAATSSFRYDYWGQGTQVTVSS
- polyreactivity (PSR sort gate): low polyreactivity

Sequence: QVQLVETGGGLVQAGGSLRLSCAASRSTIADNAMGWYRQAPGKERELVAAITRSGVRTYYADSVKGRFTISRDNAKNTVYLQMNSLKPEDTAVYYCAKRTYPSRIYDYWGQGTQVTVSS
- polyreactivity (PSR sort gate): low polyreactivity

Sequence: QVQLVETGGGLVQAGGSLRLSCAPSGITFYVYAMGWYTQAPGKERELVAAISSGSSTYYADSVKGSFTISRDNAKNTVYLQMNSLKPEDTAVYYCAARYRKYLSEYCGQGTQVTVSS
- polyreactivity (PSR sort gate): high polyreactivity

Sequence: QVQLVETGGGLVQAGGSLRLSCAPSGNTIIRYAMGWYRQAPGKERELVAAISYSGGRTYYADSVKGRFTISRDNAKNTVYLQMNSLKPEDTAVYYCNAASRYGGDYWGPGTQVTVSS
- polyreactivity (PSR sort gate): high polyreactivity

Sequence: QVQLVETGGGLVQAGGSLRLSCDASVSTFRYYTMGWYRQAPGKERELVASIRRGGSTNYADSVKGRFTISRDNAKNTVYLQMNSLKPEDTAVYYCNAKKGVYNGDAAKYDYWGPGTQVTVSS
- polyreactivity (PSR sort gate): high polyreactivity

Sequence: QVQLVETGGGLVQAGGSLRLSCPASGRIFEDNAMGWYRQEPGKERELVAAIDFSGGDTYYADSVKGRFTISRDNAKNTVYLQMNSLKPEDTAVYYCAAGRSGWGYDSWGQGTQVTVSS
- polyreactivity (PSR sort gate): low polyreactivity

Sequence: QVQLVETGGGLVQAGGSLRVSCAASGSTFSGYAMGWYRQAPGKERELVAAITRSGGRTYYADSVKGRFTISRDNAKNTVYLQMNSLLPEDTAVYYCATDRAYYHSYGRFGYWGQGTHVTVSS
- polyreactivity (PSR sort gate): high polyreactivity

Sequence: QVQLVETGGGLVQAGGTLRLSCAPSGYTIYFYALGWDIQAPGTERELVAAISGSGGRTYYADSVKGRFTISRDNAKNTVYLQMNSLKPEDTAVYYCAARKYKRIYRISSGIGYYWGQGTQVTVSS
- polyreactivity (PSR sort gate): high polyreactivity

Sequence: QVQLVETGGGLVQAGVSLRLSCAASGRTWGYDMGWYRQAPGKERELVAAIRNGASTYYADSVKGRFTISRDNAKNTVYLQMNSLKPEDTAVYYCAADYTVRVVATYDYWGQGTQVTVSS
- polyreactivity (PSR sort gate): low polyreactivity

Sequence: QVQLVETGGGVVQAGGSLRISCAASGRIFLYYTMGWYRQAPGIERELVATIRSGDSTIYADAVKGRFTISRDNAKNTVYLQMNTLTPEDTAVYYCAADWDIFQQGANGAPYDYWGQGTQVTVSS
- polyreactivity (PSR sort gate): low polyreactivity

Sequence: QVQLVETGGVLVQAGGSLRLSCAASGSIFQQNAMGGYRQAPGKERELVASISSGGRTNYADSVKGRCTISRDNAKNTVYLQMNSLKPEDTAVYYCAKTRIRYKPLHFYYWGQGTQVTVSS
- polyreactivity (PSR sort gate): low polyreactivity

Sequence: QVQLVETGRGLVQAGGSLRLSCAASGLILVPNTMGWYRQAPGTERELVAAISYSGGGPYYADSVKGRFTLSRDNATNTVYLQMNSLKPEDTAVYSCAAYDKRESPPYGYWGQGTQVTVSS
- polyreactivity (PSR sort gate): low polyreactivity

Sequence: QVQLVETGRGLVQAGGSLRLSSAASGSTFGPNAMGWYRQAHGKVRELVAAITWSGSTTYYADSVKGRFTISRDIAKNTVYLQMNSLKPEDTPVYYCAALRGYRSNWRYGYWGQGTQVTVSS
- polyreactivity (PSR sort gate): low polyreactivity
